Tests used:
[1] = target: T1, human 5T4 on cells (human) (UniProt Q13641); test: FACS on NCI-H226 cells (endogenous 5T4)
T1 sequence (looked up): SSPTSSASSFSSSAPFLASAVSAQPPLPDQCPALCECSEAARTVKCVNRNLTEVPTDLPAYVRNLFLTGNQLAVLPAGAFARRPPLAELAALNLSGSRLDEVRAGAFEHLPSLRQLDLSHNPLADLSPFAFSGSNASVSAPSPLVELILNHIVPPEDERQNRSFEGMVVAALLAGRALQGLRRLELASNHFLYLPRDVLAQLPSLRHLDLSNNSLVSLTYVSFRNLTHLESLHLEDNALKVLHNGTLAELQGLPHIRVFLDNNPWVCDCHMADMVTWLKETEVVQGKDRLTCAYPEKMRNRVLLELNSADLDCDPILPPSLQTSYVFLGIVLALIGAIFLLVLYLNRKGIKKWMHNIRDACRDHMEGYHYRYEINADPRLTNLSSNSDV

[2] = target: T1, human 5T4 on cells (human); test: FACS on CHO cells over expressing 5T4
[3] = target: T1, human 5T4 on cells (human); test: FACS, CHO cells over expressing human 5T4
[4] = target: T1, human 5T4 on cells (human); test: FACS, NCI-H226 cells
[5] = target: T2, h5T4-His (cat #19845-H08H, Sino Biological) (human) (UniProt Q13641); test: ELISA, coated h5T4-His
T2 sequence (looked up): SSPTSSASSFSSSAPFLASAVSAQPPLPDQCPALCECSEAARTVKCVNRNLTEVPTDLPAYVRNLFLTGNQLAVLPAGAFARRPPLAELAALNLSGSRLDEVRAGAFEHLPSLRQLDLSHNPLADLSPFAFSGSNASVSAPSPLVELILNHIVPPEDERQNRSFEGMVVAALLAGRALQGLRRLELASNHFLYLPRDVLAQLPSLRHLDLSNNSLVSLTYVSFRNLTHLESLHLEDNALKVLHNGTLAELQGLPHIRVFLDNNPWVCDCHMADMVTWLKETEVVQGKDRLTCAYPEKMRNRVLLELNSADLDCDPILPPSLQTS

[6] = target: T1, human 5T4 on cells (human); test: cell-based or functional assay

B1: IM-1178 Tribody (CD3x5T4_IM24xNKG2D) (protein, part only; not given: anti-CD3 Fab, anti-NKG2D scFv, linkers, not shown: another chain or arm of the molecule; small tags and cut ends)
VH: QVQLVQSGAEVKKPGASVKLTCTASGYTFTAYYMHWMRQAPGQGLEWMGIVLPGRGSTNYAQKFQGRVTVTRDTSTNTVYMELNSLTSEDTAVYYCVRGYRDFDYWGPGTLVTVSS
VL: ELVLTQSPATLSLSPGERATLSCKASQNVGTAVAWYQQKPGQAPRLLIYSASNRYTGIPARFSGSGSGTDFTLTVSSLEPEDFAVYYCQQYTSYPRTFGQGTKVEIK
- EC50 [1]: 1.24 nM
- EC50 [2]: 1.4 nM

B2: CD3X5T4_cl-16XNKG2A (protein, part only; not given: anti-CD3 Fab, anti-NKG2A scFv, linkers, not shown: another chain or arm of the molecule; small tags and cut ends)
VH: AVQLQQSGPVRVKPGASVKMSCKASGYPFTDYYMNWVKQSHGRSLDWIGVFNPYNGDTRYTQKFKDKATLTIDKSSSTAYMELNSLTSEDSAVYYCARLRLLYDTSEYYVMDYWGQGTSVTVSS
VL: ENVLTQSPAIMSASPGEKVTMTCSASSSVNYMHWYQQKSNTSPKLWIYDTSKLASGVPGRFSGSGSGNSYSLTISSMEAEDVATYFCFQGSGYPYTFGGGTKLEIK
- EC50 (read off the curve) [3]: 3 nM
- EC50 (read off the curve) [4]: 6 nM
- EC50 (read off the curve) [5]: 40 nM

B3: IM-1222 Tribody (5T4_IM53-CD3-NKG2A) (protein, part only; not given: anti-CD3 Fab, anti-NKG2A scFv, linkers, not shown: another chain or arm of the molecule; small tags and cut ends)
VH: QVQLVQSGAEVKKPGASVKVSCKASGYTFTDYYMNWVRQAPGRGLEWMGVFNPYNGDTRYTQKFKDRVTMTIDKSISTAYMELSRLRSDDTAVYYCARLRLLYDTSEYYVMDYWGQGTTVTVSS
VL: ENVLTQSPATLSLSPGERATLSCSASSSVNYMHWYQQKPGQSPRLLIYDTSKLASGIPARFSGSGSGTDYTLTISSLEPEDFAVYFCFQGSGYPYTFGGGTKVEIK
- T cells mediated cytotoxicity (lactate dehydrogenase assay), EC50 [6]: 0.02 nM
- EC50 [1]: 3.9 nM
- EC50 [2]: 2.3 nM

B4: CD3x5T4-IM50xNKG2A (protein, part only; not given: anti-CD3 Fab, anti-NKG2A scFv, linkers, not shown: another chain or arm of the molecule; small tags and cut ends)
VH: QVQLVQSGAEVKKPGASVKVSCKASGYPFTDYYMNWVRQAPGRGLEWIGVFNPYNGDTRYTQKFKDKATLTIDKSISTAYMELNRLRSDDTAVYYCARLRLLYDTSEYYVMDYWGQGTTVTVSS
VL: ENVLTQSPATLSLSPGERATLSCSASSSVNYMHWYQQKPGQAPRLLIYDTSKLASGIPARFSGSGSGTDYTLTISSLEPEDFAVYYCFQGSGYPYTFGGGTKVEIK
- EC50 (read off the curve) [3]: 5 nM

B5: CD3x5T4-IM51xNKG2A (protein, part only; not given: anti-CD3 Fab, anti-NKG2A scFv, linkers, not shown: another chain or arm of the molecule; small tags and cut ends)
VH: QVQLVQSGAEVKKPGASVKVSCKASGYTFTDYYMNWVRQAPGQGLEWMGVFNPYNGDTRYTQKFKDRVTMTRDTSISTAYMELSRLRSDDTAVYYCARLRLLYDTSEYYVMDYWGQGTTVTVSS
VL: ENVLTQSPATLSLSPGERATLSCSASSSVNYMHWYQQKPGQSPRLLIYDTSKLASGIPARFSGSGSGTDYTLTISSLEPEDFAVYFCFQGSGYPYTFGGGTKVEIK
- EC50 (read off the curve) [3]: 5 nM

B6: CD3x5T4-IM34xNKG2A (protein, part only; not given: anti-CD3 Fab, anti-NKG2A scFv, linkers, not shown: another chain or arm of the molecule; small tags and cut ends)
VH: AVQLVQSGAEVKKPGASVKVSCKASGYTFTDYYMNWVRQAPGQGLEWMGVFNPYNGDTRYTQKFKDKVTMTIDKSTSTVYMELNSLRSEDTAVYYCARLRLLYDTSEYYVMDYWGQGTTVTVSS
VL: ENVLTQSPATLSLSPGERATLSCSASSSVNYMHWYQQKPGQAPRLLIYDTSKLASGIPARFSGSGSGNDFTLTISSLEPEDFAVYYCFQGSGYPYTFGGGTKVEIK
- EC50 (read off the curve) [3]: 6 nM

B7: CD3x5T4-IM49xNKG2A (protein, part only; not given: anti-CD3 Fab, anti-NKG2A scFv, linkers, not shown: another chain or arm of the molecule; small tags and cut ends)
VH: QVQLVQSGAEVKKPGASVKVSCKASGYTFTDYYMNWVRQAPGRGLEWIGVFNPYNGDTRYTQKFKDRATLTIDKSISTAYMELSRLRSDDTAVYYCARLRLLYDTSEYYVMDYWGQGTTVTVS
VL: ENVLTQSPATLSLSPGERATLSCSASSSVNYMHWYQQKPGQAPRLLIYDTSKLASGIPARFSGSGSGTDYTLTISSLEPEDFAVYYCFQGSGYPYTFGGGTKVEIK
- EC50 (read off the curve) [3]: 5 nM
